“And” between values parts separate entries of the source, which are not always exact repeats. Equal values may be shown once.
Molecular target: SARS-CoV-2 S trimer (SARS-CoV-2, UniProt P0DTC2)
Assay: SPR

B1: P17 (antibody, V domains shown)
VH: QQLVESGGGVVQPGRSLRLSCAASGFTFSSYAMHWVRQAPGKGLEWVAVISYDGSNKYYADSVKGRFTISRDNSKNTLYLQMNSLRAEDTAVYYCARHATLMNNKDIWGQGTLVTVSS
VL: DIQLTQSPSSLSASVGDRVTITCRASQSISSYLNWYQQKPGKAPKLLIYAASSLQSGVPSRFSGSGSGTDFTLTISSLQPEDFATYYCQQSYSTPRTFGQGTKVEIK
B1 was tested, and the Kd was 0.14 nM and 0.08 nM and 0.06 nM.

From PMC8005859 (2021)
